Drawing on patent US20180243365A1, this text covers molecules of PepB2 calculated to bind a single molecule of TcdB (molecules of PepB2 per molecule of TcdB) for 1 substance.

For this assay, the target named is TcdB2 toxin (recombinant, full length) (Clostridium difficile). The assay is described as follows: SPR, TcdB2 immobilized, PepB2 injected; multivalent interaction, no affinity or rate constant determined.

As to “PepB2 (Peptide 5; amino acids 1769-1787 of TcdB2)”, the molecules of PepB2 calculated to bind a single molecule of TcdB (molecules of PepB2 per molecule of TcdB) is 250.
